Assay results as given in publication PMC9606039, “Molecular analysis of a public cross-neutralizing antibody response to SARS-CoV-2” (Cell Reports, 2022).

B1: XGv265 (antibody, V domains shown)
VH: QITLKESGPTLVKPTQTLTLTCNFSGFSLNTYGVGVGWIRQPPGKALEWLALIYWDGDERYGPFFKNKVTIAKDTSKNQVVLTMTNMDPVDTATYYCARHLIPTIFDYWGQGTLVTVSS
VL: QSALTQPASVSGSPGQSITISCTGTSSDVGGSNYVSWYQHHPDRAPKLLIYEVTNRPSGVSNRFSGSKSANTASLTISGLQAEDEADYYCSSYTTTSTHILFGGGTKLTV
B2: XG005 (antibody, V domains shown)
VH: QVTLRESGPTLVKPKQTLTLTCTFSGFSLSTPGGGVGWIRQPPGKALEWLALIYWDDDKRYSPSLKSSLTITKDTSKNQVVLTMTNMDPVDTATYYCARLTAADTIFDCWGQGTLVTVSS
VL: QSALTQPASVSGSPGLSITISCTATSSDVGAYNYVSWYQQHPGQAPKLMIYDVSKRPSGVSNRFSGSKSANTASLTISGLQAEDEADYYCSSYTTTSVVFGGGTKLTVL

Target: receptor-binding domain (RBD) (residues 319-541) of the SARS-CoV-2 spike (S) protein (SARS-CoV-2, ancestral Wuhan-Hu-1 …, UniProt P0DTC2)

Binder | binding result
B1 | binds
B2 | binds
